Results: patent US20120328512A1 (BRACCO IMAGING S P A, published 2012)
Bridge positions count the residues as written; N and C are the ends. Square brackets hold non-standard residues; d marks the D form. * marks the point of attachment. αGalNAc = CC(=O)N[C@@H]1[C@@H](O)[C@@H](O)[C@@H](CO)O[C@@H]1*; Phe(3,4-F2) = N[C@@H](Cc1ccc(F)c(F)c1)C(=O)O; Thf2ca = tetrahydrofuran-2-carboxylic acid; Hyp = O=C(O)[C@@H]1C[C@@H](O)CN1; Cha = N[C@@H](CC1CCCCC1)C(=O)O; CF5 = 5-carboxyfluorescein; AEEA = NCCOCCOCC(=O)O

T1: DDE
T1 chain 1: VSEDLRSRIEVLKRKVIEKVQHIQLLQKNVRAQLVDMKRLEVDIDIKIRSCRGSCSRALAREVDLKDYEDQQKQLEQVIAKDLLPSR
T1 chain 2: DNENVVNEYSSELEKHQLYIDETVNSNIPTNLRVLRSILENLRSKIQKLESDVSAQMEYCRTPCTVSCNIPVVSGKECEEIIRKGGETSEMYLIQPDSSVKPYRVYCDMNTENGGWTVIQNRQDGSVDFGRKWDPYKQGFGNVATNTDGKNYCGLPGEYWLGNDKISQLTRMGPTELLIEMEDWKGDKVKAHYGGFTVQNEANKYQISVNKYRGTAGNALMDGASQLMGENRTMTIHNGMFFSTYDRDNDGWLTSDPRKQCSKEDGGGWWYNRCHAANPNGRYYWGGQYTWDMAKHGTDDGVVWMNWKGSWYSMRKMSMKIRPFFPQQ
T1 chain 3: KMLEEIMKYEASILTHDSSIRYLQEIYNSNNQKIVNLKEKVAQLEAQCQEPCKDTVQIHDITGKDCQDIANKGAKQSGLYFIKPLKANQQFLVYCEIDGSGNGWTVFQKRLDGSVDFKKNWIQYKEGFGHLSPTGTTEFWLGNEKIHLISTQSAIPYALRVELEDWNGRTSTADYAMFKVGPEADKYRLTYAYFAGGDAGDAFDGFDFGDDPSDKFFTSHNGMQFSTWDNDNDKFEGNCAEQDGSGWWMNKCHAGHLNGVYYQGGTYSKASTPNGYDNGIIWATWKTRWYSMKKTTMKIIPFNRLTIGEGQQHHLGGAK
T1 chain 4: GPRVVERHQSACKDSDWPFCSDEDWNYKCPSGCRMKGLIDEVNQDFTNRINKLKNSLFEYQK
T1 chain 5: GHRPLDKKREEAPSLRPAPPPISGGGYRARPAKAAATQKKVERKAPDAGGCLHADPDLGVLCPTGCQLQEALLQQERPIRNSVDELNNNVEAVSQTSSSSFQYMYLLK
T1 chain 6: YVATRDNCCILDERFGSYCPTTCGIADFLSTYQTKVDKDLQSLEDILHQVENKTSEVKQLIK

B1: Seq042-CF5 (peptide)
peptide: Ac-WQPCPAESWT[Cha]CWDPGGGK(CF5)-NH2
modifications: disulfide 4-12
notes: also called Ac-WQPC*PAESWT-Cha-C*WDPGGGK(CF5)-NH2
B2: Seq005-P (peptide)
peptide: Ac-WQPCPAESWTFCWDPGGGK-NH2
modifications: disulfide 4-12
SMILES: CC(=O)N[C@@H](Cc1c[nH]c2ccccc12)C(=O)N[C@@H](CCC(N)=O)C(=O)N1CCC[C@H]1C(=O)N[C@H]1CSSC[C@@H](C(=O)N[C@@H](Cc2c[nH]c3ccccc23)C(=O)N[C@@H](CC(=O)O)C(=O)N2CCC[C@H]2C(=O)NCC(=O)NCC(=O)NCC(=O)N[C@@H](CCCCN)C(N)=O)NC(=O)[C@H](Cc2ccccc2)NC(=O)[C@H]([C@@H](C)O)NC(=O)[C@H](Cc2c[nH]c3ccccc23)NC(=O)[C@H](CO)NC(=O)[C@H](CCC(=O)O)NC(=O)[C@H](C)NC(=O)[C@@H]2CCCN2C1=O
B3: Seq047-P (peptide)
peptide: Ac-RRGGWQPC[Hyp]WESWTFCWDPGGGK-NH2
modifications: disulfide 8-16
SMILES: CC(=O)N[C@@H](CCCNC(=N)N)C(=O)N[C@@H](CCCNC(=N)N)C(=O)NCC(=O)NCC(=O)N[C@@H](Cc1c[nH]c2ccccc12)C(=O)N[C@@H](CCC(N)=O)C(=O)N1CCC[C@H]1C(=O)N[C@H]1CSSC[C@@H](C(=O)N[C@@H](Cc2c[nH]c3ccccc23)C(=O)N[C@@H](CC(=O)O)C(=O)N2CCC[C@H]2C(=O)NCC(=O)NCC(=O)NCC(=O)N[C@@H](CCCCN)C(N)=O)NC(=O)[C@H](Cc2ccccc2)NC(=O)[C@H]([C@@H](C)O)NC(=O)[C@H](Cc2c[nH]c3ccccc23)NC(=O)[C@H](CO)NC(=O)[C@H](CCC(=O)O)NC(=O)[C@H](Cc2c[nH]c3ccccc23)NC(=O)[C@@H]2C[C@@H](O)CN2C1=O
B4: Seq032-P (peptide)
peptide: Ac-WQPC[Hyp]WESWTFCWDPGGGK-NH2
modifications: disulfide 4-12
notes: also called Ac-WQPC*-Hypt4-WESWTFC*WDPGGGK-NH2
B5: Seq031-P (peptide)
peptide: Ac-S(αGalNAc)[AEEA]WQPCPWESWTFCWDPGGGK-NH2
modifications: disulfide 6-14
SMILES: CC(=O)N[C@H]1[C@@H](OC[C@H](NC(C)=O)C(=O)NCCOCCOCC(=O)N[C@@H](Cc2c[nH]c3ccccc23)C(=O)N[C@@H](CCC(N)=O)C(=O)N2CCC[C@H]2C(=O)N[C@H]2CSSC[C@@H](C(=O)N[C@@H](Cc3c[nH]c4ccccc34)C(=O)N[C@@H](CC(=O)O)C(=O)N3CCC[C@H]3C(=O)NCC(=O)NCC(=O)NCC(=O)N[C@@H](CCCCN)C(N)=O)NC(=O)[C@H](Cc3ccccc3)NC(=O)[C@H]([C@@H](C)O)NC(=O)[C@H](Cc3c[nH]c4ccccc34)NC(=O)[C@H](CO)NC(=O)[C@H](CCC(=O)O)NC(=O)[C@H](Cc3c[nH]c4ccccc34)NC(=O)[C@@H]3CCCN3C2=O)O[C@H](CO)[C@H](O)[C@@H]1O
B6: Seq029-P (peptide)
peptide: Ac-RRGGWQPCPWESWTFCWDPGGGK-NH2
modifications: disulfide 8-16
SMILES: CC(=O)N[C@@H](CCCNC(=N)N)C(=O)N[C@@H](CCCNC(=N)N)C(=O)NCC(=O)NCC(=O)N[C@@H](Cc1c[nH]c2ccccc12)C(=O)N[C@@H](CCC(N)=O)C(=O)N1CCC[C@H]1C(=O)N[C@H]1CSSC[C@@H](C(=O)N[C@@H](Cc2c[nH]c3ccccc23)C(=O)N[C@@H](CC(=O)O)C(=O)N2CCC[C@H]2C(=O)NCC(=O)NCC(=O)NCC(=O)N[C@@H](CCCCN)C(N)=O)NC(=O)[C@H](Cc2ccccc2)NC(=O)[C@H]([C@@H](C)O)NC(=O)[C@H](Cc2c[nH]c3ccccc23)NC(=O)[C@H](CO)NC(=O)[C@H](CCC(=O)O)NC(=O)[C@H](Cc2c[nH]c3ccccc23)NC(=O)[C@@H]2CCCN2C1=O

Biological target: T1, DDE
Assay: direct binding fluorescence polarization: CF5-labeled peptide titrated with DDE; n = 2

Kd [nM] | Binder
710 | Ac-KKGWQPCPWESWTFCWDPGGGK(CF5)-NH2 (disulfide 7-15) [Seq025-CF5]
570 | Ac-SGSG[AEEA]WQPCPAESWTFCWDPGGGK(CF5)-NH2 (disulfide 9-17) [Seq045-CF5]
520 | Ac-GGRGWQPCPAESWTFCWDPGGGK(CF5)-NH2 (disulfide 8-16) [Seq035-CF5]
310 | Ac-GPPGWQPCPAESWTFCWDPGGGK(CF5)-NH2 (disulfide 8-16) [Seq034-CF5]
530 | Ac-SGSGSGSGWQPCPAESWTFCWDPGGGK(CF5)-NH2 (disulfide 12-20) [Seq040-CF5]
170 | B1
760 | Ac-KGKGKGWQPCPWESWTFCWDPGGGK(CF5)-NH2 (disulfide 10-18) [Seq026-CF5]
220 | Ac-RRGGWQPCPAESWTFCWDPGGGK(CF5)-NH2 (disulfide 8-16) [Seq046-CF5]

Biological target: T1, DDE
Assay: competition fluorescence polarization: unlabeled peptide against Seq000-CF5 tracer on DDE; n = 2

Rel IC50 | Binder
0.875 ratio to the reference peptide | B2
0.75 ratio to the reference peptide | B3
0.55 ratio to the reference peptide | B4
0.527 ratio to the reference peptide | Ac-SGSGSGSGWQPCPWESWTFCWDPGGGK-NH2 (disulfide 12-20) [Seq024-P]
0.235 ratio to the reference peptide | Ac-GPPGWQPCPWESWTFCWDPGGGK-NH2 (disulfide 8-16) [Seq014-P]
0.357 ratio to the reference peptide | Ac-KKGWQPCPWESWTFCWDPGGGK-NH2 (disulfide 7-15) [Seq025-P]
0.595 ratio to the reference peptide | Ac-KGKGKGWQPCPWESWTFCWDPGGGK-NH2 (disulfide 10-18) [Seq026-P]
0.511 ratio to the reference peptide | H-RGWQPCPWESWTFCWDPGGGK-NH2 (disulfide 6-14) [Seq022-P]
0.714 ratio to the reference peptide | Ac-SGSG[AEEA]WQPCPWESWTFCWDPGGGK-NH2 (disulfide 9-17) [Seq017-P]
1.15 ratio to the reference peptide | B5
0.37 ratio to the reference peptide | Ac-GGRGWQPCPWESWTFCWDPGGGK-NH2 (disulfide 8-16) [Seq015-P]
0.125 ratio to the reference peptide | B6
0.47 ratio to the reference peptide | H-RWQPCPWESWTFCWDPGGGK-NH2 (disulfide 5-13) [Seq023-P]

biological target: DDE; assay: as above

Rel IC50 (ratio to the reference peptide) | Binder
0.616 | Thf2ca-WQPCPWESWTFCWDPGGGK-NH2 (disulfide 4-12) [Seq028-P]
0.559 | Ac-S(αGalNAc)WQPCPWESWTFCWDPGGGK-NH2 (disulfide 5-13) [Seq027-P]
0.622 | H-GWQPCPWESWTFCWDPGGGK-NH2 (disulfide 5-13) [Seq021-P]
0.428 | Ac-WQPCPWESWT[Phe(3,4-F2)]CWDPGGGK-NH2 (disulfide 4-12) [Seq020-P]
